Data from patent US20160136299A1 (published 2016).
Read-outs that look alike come from different tables or passages of the source.

B1: A114N (antibody)
heavy: not shown
light: DIVMTQTPLSLSVTPGQPASISCKSSQSLLYSNGKTYLNWLLQKPGQSPQRLIYLVSKLDSGVPDRFSGSGSGTDFTLKISRVEAEDVGVYYCVQGTHLHTFGQGTRLEIKRTVAAPSVFIFPPSDEQLKSGTASVVCLLNNFYPREAKVQWKVDNALQSGNSQESVTEQDSKDSTYSLSSTLTLSKADYEKHKVYACEVTHQGLSSPVTKSFNRGEC
modifications: additional N-linked glycan at N114 (Kabat)
B2: WT 2C3 (antibody)
heavy: not shown
light: B1 light
B3: ASGPR receptor subunit H1 (receptor)
chain: QNSQLQEELRGLRETFSNFTASTEAQVKGLSTQGGNVGRKMKSLESQLEKQQKDLSEDHSSLLLHVKQFVSDLRSLSCQMAALQGNGSERTCCPVNWVEHERSCYWFSRSGKAWADADNYCRLEDAHLVVVTSWEEQKFVQHHIGPVNTWMGLHDQNGPWKWVDGTDYETGFKNWRPEQPDDWYGHGLGGGEDCAHFTDDGRWNDDVCQRPYRWVCETELDKASQEPPLL
B4: S440N (antibody)
heavy: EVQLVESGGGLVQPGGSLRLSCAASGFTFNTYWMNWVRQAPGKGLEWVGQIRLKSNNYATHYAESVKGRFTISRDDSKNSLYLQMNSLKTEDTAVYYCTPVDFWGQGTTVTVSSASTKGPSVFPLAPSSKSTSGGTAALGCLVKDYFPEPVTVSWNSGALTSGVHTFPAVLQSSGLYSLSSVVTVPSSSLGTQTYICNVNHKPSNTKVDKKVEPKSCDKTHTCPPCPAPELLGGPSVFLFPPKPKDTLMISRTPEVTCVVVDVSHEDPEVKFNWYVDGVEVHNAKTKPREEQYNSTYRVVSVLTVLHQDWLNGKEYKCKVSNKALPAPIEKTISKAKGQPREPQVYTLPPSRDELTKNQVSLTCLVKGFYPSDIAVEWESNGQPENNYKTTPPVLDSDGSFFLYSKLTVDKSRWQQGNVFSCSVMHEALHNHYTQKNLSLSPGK
light: B1 light
B5: Y436S (antibody)
heavy: not shown
light: B1 light
B6: NGT (antibody)
heavy: not shown
light: B1 light
B7: Y436T (antibody)
heavy: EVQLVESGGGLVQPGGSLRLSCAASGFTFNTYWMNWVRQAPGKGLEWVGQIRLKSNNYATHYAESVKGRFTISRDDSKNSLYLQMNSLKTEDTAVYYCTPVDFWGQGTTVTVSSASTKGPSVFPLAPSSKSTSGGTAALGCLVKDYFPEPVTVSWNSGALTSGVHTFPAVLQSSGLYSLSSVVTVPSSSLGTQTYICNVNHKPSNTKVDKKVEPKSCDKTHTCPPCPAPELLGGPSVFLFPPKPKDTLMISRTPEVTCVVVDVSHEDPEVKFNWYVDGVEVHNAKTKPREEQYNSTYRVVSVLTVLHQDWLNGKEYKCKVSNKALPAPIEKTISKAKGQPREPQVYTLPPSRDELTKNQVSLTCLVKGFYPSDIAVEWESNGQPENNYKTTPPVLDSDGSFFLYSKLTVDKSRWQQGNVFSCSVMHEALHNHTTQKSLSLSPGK
light: B1 light
B8: S442N (antibody)
heavy: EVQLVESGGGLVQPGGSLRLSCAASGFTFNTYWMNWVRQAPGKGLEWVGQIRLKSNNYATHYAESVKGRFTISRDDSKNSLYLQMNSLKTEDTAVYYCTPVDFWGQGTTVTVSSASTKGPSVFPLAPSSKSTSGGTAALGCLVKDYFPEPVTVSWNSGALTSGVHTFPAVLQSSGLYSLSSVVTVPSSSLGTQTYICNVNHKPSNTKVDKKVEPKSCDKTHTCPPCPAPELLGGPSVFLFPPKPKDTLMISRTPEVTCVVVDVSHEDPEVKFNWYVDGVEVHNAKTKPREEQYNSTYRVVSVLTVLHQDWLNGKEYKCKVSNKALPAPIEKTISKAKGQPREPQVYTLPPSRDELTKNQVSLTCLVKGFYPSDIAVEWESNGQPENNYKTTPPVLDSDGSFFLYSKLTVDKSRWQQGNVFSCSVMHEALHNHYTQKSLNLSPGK
light: B1 light
B9: S298N/Y300S (antibody)
heavy: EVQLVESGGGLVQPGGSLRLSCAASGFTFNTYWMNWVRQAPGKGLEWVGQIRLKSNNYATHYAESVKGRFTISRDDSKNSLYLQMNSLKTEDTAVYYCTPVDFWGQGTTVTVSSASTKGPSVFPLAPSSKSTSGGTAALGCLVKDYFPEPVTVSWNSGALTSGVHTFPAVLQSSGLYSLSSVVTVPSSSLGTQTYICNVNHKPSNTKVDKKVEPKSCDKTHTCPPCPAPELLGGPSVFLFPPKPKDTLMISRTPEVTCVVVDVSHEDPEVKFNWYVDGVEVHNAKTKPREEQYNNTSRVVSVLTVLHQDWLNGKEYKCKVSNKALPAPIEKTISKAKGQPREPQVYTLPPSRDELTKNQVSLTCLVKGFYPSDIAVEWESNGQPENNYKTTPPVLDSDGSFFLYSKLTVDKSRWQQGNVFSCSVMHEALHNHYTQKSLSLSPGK
light: B1 light

Columns and labels:
CD-52 peptide 741 [1] = experiment: SPR
CD-52 peptide 741 [2] = experiment: SPR; remark: listed apart in the source
[3] = biological target: SAM conjugate (~1.6 GalNAc) (S10); experiment: SPR; ~1.6 GalNAc
[4] = biological target: SAM conjugate (~0.8 GalNAc) (S9); experiment: SPR; ~0.8 GalNAc
Control enzyme (S4) = experiment: SPR
[5] = biological target: SAM conjugate (~8 gp) (S5); experiment: SPR; trivalent galactose glycopeptide conjugate

Binder | Kd (CD-52 peptide 741 [2]) | other results
B1 |  | Kd (CD-52 peptide 741 [1]): 2.4 nM
B2 | 1.75 nM | Kd (CD-52 peptide 741 [1]): 2.1 nM
B3 |  | koff [3]: 0.000296 s⁻¹; koff [4]: 0.00107 s⁻¹; koff (Control enzyme (S4)): 0.0515 s⁻¹; koff [5]: 0.0387 s⁻¹
B4 | 1.84 nM | 
B5 | 1.73 nM | 
B6 | 1.35 nM | 
B7 | 1.95 nM | 
B8 | 1.85 nM | 
B9 | 1.8 nM | 
